{"source": "the nanobody polyreactivity screen of Harvey et al. (2022)", "data": [{"assay": "yeast display, Sf9 membrane polyspecificity reagent, FACS + sequencing; frameworks hold sequencing errors", "outline": "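A nanobody's polyreactivity label depends on the gate it was sorted from. Yeast display cells were stained with 10% biotinylated, detergent-solubilized Sf9 membrane reagent for 1 hour at 4 °C, enriched on streptavidin microbeads and sorted by FACS. The low and high (top ~1%) gates were set on anti-HA fluorescence for expression and streptavidin fluorescence for reagent binding.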", "values": [{"sequence": "QVQLVESGGGLVQAGGSLRLSCSASGSIFPAYAMGWYRQAPGKERELVASITGSGGSTYYADSVKGRFTISRDNAKNTVYLQMNSLKPEDTAVYYCNARYYVYSATVDRYYHFYYCGQGTQVTVSS", "polyreactivity (PSR sort gate)": "high polyreactivity"}, {"sequence": "QVELVESGGGLVQAGGSLRLSCAASGYTFRFNAMGWYRQAPGKEREFVAAIDFGGAGTYYADSVKGRFTISRDNAKNTVYLQMNSLKPEDTAVYYCNARDGVTTEFDYWGQGTQVTVSS", "polyreactivity (PSR sort gate)": "low polyreactivity"}, {"sequence": "QVQLVESGGGLVQAGGSLRLSCAPSGFSFRQYAMGWYRQAPGKERELVAAISSSGGRTYYADSVKGRCTISRDNAKNTVYLQMNSLKPEDSAVYYCNARAWLRGEYGEGYWGQGTQVTVSS", "polyreactivity (PSR sort gate)": "high polyreactivity"}, {"sequence": "QVQLVESGGGLVQAGGSLRLSCAASGSIFHFYVMGWYRQAPGKERELVAGISSSGGRTYYADSVKGRFTISRDNAKNTFYLQMNSLKPEDTAVYYCANDMYHSVGRYDYWGQGTQVTVSS", "polyreactivity (PSR sort gate)": "low polyreactivity"}, {"sequence": "QVQHVESGGGLVQAGGSLRLSCAASGFIFPVYAMGWYRQAPGKDRELVAAISSGGITNYADSVKVRFTISRDNAKNTVYLQMNSLKPEDTAVYYCAARDYVRFGLYDYDYWGQGTQVTVSS", "polyreactivity (PSR sort gate)": "low polyreactivity"}, {"sequence": "QVQLVESGGGLVQAGGSLRLSCAASGFTLALNAMGWYRQAPGKERELVAVINSGGSTNYADSVKGRFTISRDNAKNTVYLQMNSLKPEDTAVYYYWGQGTQVTESS", "polyreactivity (PSR sort gate)": "low polyreactivity"}, {"sequence": "QVQLVESGGGLVQAGGSLRISCAASGGIIAINSMRCYRQAPGKERELVAAISWGDGITYYSDSVKRRFTISRDNAKYTVYLHMISLKPEDTAVYYCAADEDEYRGGDESWGQGTQVTVSA", "polyreactivity (PSR sort gate)": "low polyreactivity"}, {"sequence": "QVQLVESGGGLVQAGGSLRLSCAASGSIFRGYSMGWYRQAPGKERELVAAINTSGGRTYYADSVKGRFTISRDNAKNTVYLQMNSLKPEDTAVFYCATEYYQAKREDYWGQGTQVTVSS", "polyreactivity (PSR sort gate)": "high polyreactivity"}, {"sequence": "QVQLVESGGGLVQAGGSLRLSCAASGFIFVIYAMGWSRQAPGKERELVAAIRWRGGGTYYADSVKGRFTISRDNAKNTVYLQMYSLKPEDTAVYYCNADGWTYREEYWWRMDYWGQGTQVTVSS", "polyreactivity (PSR sort gate)": "low polyreactivity"}, {"sequence": "QVQLVESGGGLVQAGGSLRLSCAASGSIFGRNAMGWYRPAPGKERELVAAISRRGGNTYYADSVKGRFTISRDNAKNTVYLQMNSLKPEDTAVYYCAAEVKTSYSYTHDGYWGQGTQVTVSS", "polyreactivity (PSR sort gate)": "high polyreactivity"}, {"sequence": "QVQLVESVGGLVQAGGSLRLSCASSGRIFRGNAMGWYRQAPGKERELVAAINSRGTHTYYADSVKGRFTISRDNAKNTVYLQMNSLKPEDTAVYYCAATWTQPQPGYYAYYYWGQGTQVSVSS", "polyreactivity (PSR sort gate)": "high polyreactivity"}, {"sequence": "QVQLVESGGGLVQAGGSLRLSCAASGSIFLNNAMGWYRQAPGKERELVAAITRNVGSTYYADSVKGRFTISRDNAKNTVYLQMNSLKPEDSAVYYCAADRRRRYDYWGQGTQVTVSS", "polyreactivity (PSR sort gate)": "low polyreactivity"}, {"sequence": "QVQLVESGGGLVQAGGSLRLTCAASGFIFQIYAMGWYRQAPGKERELVAAISSGGSTNYADSVKGRFTISRDNAKNTVYLQMNSLKPEDTAVYYCAAATQYWYFYSFKDKSGFRGYYWGQGTQVTVSS", "polyreactivity (PSR sort gate)": "high polyreactivity"}, {"sequence": "QVQLVESGGGLVQAGGSLRLSCAASGTTLGYYTMGWYRQAPGKERELVAAIDWSGGSTYYADSVKGRFTISRDNAKNTVYLQMNSLKPEDTAVYYCNAEPWDPFYSPGRGGMDYWGQGTQVNVSS", "polyreactivity (PSR sort gate)": "low polyreactivity"}, {"sequence": "QVQLVESGGGLVQAGGSVRLSCAASGRIFRYYMGWYRQAPGKEREFVAAITTRGGRTYYADSVKGRFTISRDNAKNTVSLQMNSLKPEDTAVYYCAAGYNGAIIALRAYDYWGQGTQVTVSS", "polyreactivity (PSR sort gate)": "high polyreactivity"}, {"sequence": "QVQLVESGGGLVQAGGSLRLSCAASGFTLLTYVMGWYRQAPGKERELVAAISKSGSRTYYADSVKGRFTISRDNAKNTVYVQMNSLKPEDTPVYYCAADTSAYRYDYWGQGTQVTVSS", "polyreactivity (PSR sort gate)": "high polyreactivity"}, {"sequence": "QVQLVESGGGLVQAGGSLRLSCAASGSTFARYAMGWYRQAPGKERELVASITTGGRTYYADSVKGRFTITRDNAKYTVYLQMNSLKPEDTPVYFCNVLRYRGYDYWGQGTQVTVSS", "polyreactivity (PSR sort gate)": "high polyreactivity"}, {"sequence": "QVQLVESGGGLVQAGGSLRLSGAASGSTFIINAMGWSSQAPGKELELVAAISGRGTRTYYADSVKGRFTISRDNAKNTVYLQMNSLNPEDTAVYSCAALDTAGPYNTLDIYDHWGQGTQVTVSS", "polyreactivity (PSR sort gate)": "high polyreactivity"}, {"sequence": "QDQLVESGGGLVQAGGSLRLSCAASGRIFPYNAMGWYRQAPGKERELVAGISRTGGSTYYADSVKGRFTISRDNAKNTVYLQMNSLKPEDTAVYYCAARPGAHPDRLDYWGQGTQVTVSS", "polyreactivity (PSR sort gate)": "low polyreactivity"}, {"sequence": "QVQLVESGGGLVQAGGSLRLSCAASGSIFDVNAMGWYRQAPGKERELVAAISDSGGSTYYADSVKGRFTISRDNAKNTVYLQMNSLKPEDSAVYYCNADWSWYNYYDFDYWGQGTQVTVSS", "polyreactivity (PSR sort gate)": "low polyreactivity"}, {"sequence": "QDQLVESGGGLDQAGGSLRLSCAASGGTFKVNAMGWYRQAPGKEREFVAAISSGGSTYYADSVKGRFTISRDNAKNTVYLQINSLKPEDTAVYYFAASGAYDEAYGEAFYYWGQGTQVIVSS", "polyreactivity (PSR sort gate)": "low polyreactivity"}, {"sequence": "QVQLVESGGGLVQAGGSLRLSCAASGRTFRYYTMGWYRQAPGKERELVAAISRGGRTYYADSVKGRFTISRDNAKNTVYLQMNSLKPEDTAVYYCAAQLFREYYYWGQGTQVTVSS", "polyreactivity (PSR sort gate)": "high polyreactivity"}, {"sequence": "QVQLVESGGGLVQAGGSLRLSCAASGRIFYLNVMGWYRQAPGKERELVAAITRRDVTTYADSVKGRFTISRDNAKNTVYLQMNSLKPEDTAVYYCNAEYVPYYEYESWGQGTQVTVSS", "polyreactivity (PSR sort gate)": "low polyreactivity"}, {"sequence": "QVQLVESGGGLVQAGGSLRLSCAASGSTFQYNAMGWYRQAPGKEREFVAAISRTGTSTYYADSVKGRFTISRDNAKNTVYLQMNSLKPEDNAVYYCAAKSLRSGMGYWGQGTQVTVSS", "polyreactivity (PSR sort gate)": "high polyreactivity"}, {"sequence": "QVQLQESGGGLVLAGGSLRLSCSASGNISVYGSMGWYRQAPGKEREFVATIDPGTNTNYADSVKDRFTISRDNAKNTVYLQMNSLKPEDTAVYYCAVEAGSDWLYRYWGQGTKVTVSS", "polyreactivity (PSR sort gate)": "low polyreactivity"}, {"sequence": "QVQLVDSGGGLVQAGGRLRLSCAASGSTFRLYAMGWYRQAPGKERELVAAISSNGVRTYYADSVKGRFTISRDNAKNTVYLQLNSLKPEDTAVYYCAARVYPAYPRGYDYWGQGTQVTVSS", "polyreactivity (PSR sort gate)": "high polyreactivity"}, {"sequence": "QVQLVESGGGLVQAGGSLRLSCAASGGIFGTYTMGGYRQSPGKEREFVAAIRSSSGRTYYADSVKGRFTISRDNAKNTVYLQMNSLKPEVTAVYYCNAKYYGYRVGKYYPFGYWGQGTQVTVSS", "polyreactivity (PSR sort gate)": "high polyreactivity"}, {"sequence": "QVQLVESGGGLVQAGGSLRLSCAAYGRTLRYYAMGWYRQAPGKERELVAAISSGGTTNYADSVKGRFTISRDNAKNTVYLQMNSLKPEDTAVYYCAARYRRFRFTQYDYWGQGTQVTVSS", "polyreactivity (PSR sort gate)": "high polyreactivity"}, {"sequence": "QVQLVESGGGLVQAGGSLRLSCAASGRTFYSNAMGWYRQAPGKETELVAAISNRGGSTYYADSLKGRFTISRDNAKNTVYLQMNSLKPEYTAVYYCARYPTKYGYWGQGTQVTVSS", "polyreactivity (PSR sort gate)": "high polyreactivity"}, {"sequence": "QVQLVESGGGLVQAGGSLRLSCAASGSTFRYYAMGWYRQAPGKERELVAAISGSGGSTYYADSVKGRFTISRDNAKNTVYFQMNSLKPEDTAVYYCNKVYARLVLSYDSWGQGTQVTVSS", "polyreactivity (PSR sort gate)": "high polyreactivity"}, {"sequence": "QVQLVESGGGLVQAGGSLRLSCAASGSTSPDNAMGWYRPAQGKERELVAAISSGGYTYADSVKGRFTISRDNAKNTVYLQMNSLKPEDTSVYYCAKDDLYSPAAGGGYWGEGTQVTVSS", "polyreactivity (PSR sort gate)": "low polyreactivity"}, {"sequence": "QVQLVESGGGLVQAGGSLRLSCAASGSTFGWYAMGLYRQAPGKERELVATISSGGSTYYADSVKGRFTISRDNAKNTVYLQMNSLKPEDTAVYYCAADYWTYEYPGYDYWGQGTQVTVSS", "polyreactivity (PSR sort gate)": "low polyreactivity"}, {"sequence": "QVQLVESGGGLVQAGGSLRLSCAASGRIFKRNTMGWYRQAPGKEWELVAAITRSGGSTHYADSVKGRFTFSRDNAKNTVYLHMNSLKPEDTAVYYCAVRAAAIDRLAQFDYWGQGSQVTVSS", "polyreactivity (PSR sort gate)": "low polyreactivity"}, {"sequence": "QVQLEESGGRLVQAGGSLRLSCAASGGILRGYGMGWYRQAQGKQRELVAVISRRGGSTYYADSVKGRFTISRDNAKNTVYLQMNRLKPEVTAVYYCAADLKTGFLEYDYWGQGTQVTVSS", "polyreactivity (PSR sort gate)": "high polyreactivity"}, {"sequence": "QVQLVESGGGLVQAGGSLRLSCAASGIIFHFNDMGWYRQAPGKERELVAAITSGGSTNYADSVKGRFTISRDNAKNTVYLQMNSLKPEDTAVYYCAARRGLRLFAYRHGYWGQGTQVTVSS", "polyreactivity (PSR sort gate)": "low polyreactivity"}, {"sequence": "QVQLVESGGGLVQAGGSLRLSCAAYGRTFWNYAMGWYRQAPGKERELVAAISSSGGTTYYADSVKGRFTISRDNAKNTVYLQMNSLKPEDTAVYYCAATGVSKPQRSFVYWGQGTQVTVSS", "polyreactivity (PSR sort gate)": "low polyreactivity"}, {"sequence": "QVHLVESGGGFVQAGGSLRLSCAASGSIFVINGMGWYRQAPGKERELVAAISSRGGDTYYADSVKGRFTISRDNAKNTVYLQMNSLKPEDTAVYYCNARYYTSYDYWGQGTKVTVSS", "polyreactivity (PSR sort gate)": "low polyreactivity"}, {"sequence": "QVQLVESGGGLDQAGGSLPLSCAASGRTFRYYDRGSYRQAPGKERELVARISISGAGTYYADSVKGRFTISRDNAKNTVYFEMNSLKPEDTAVYYCAADLFWWQKTISGGDYWGQGTQVNVSS", "polyreactivity (PSR sort gate)": "low polyreactivity"}, {"sequence": "QVQIVESGGGLVQAGGSLRLSCAASGSTFGGYVMGWYRQAPGKERELVAAIRWRTDSTYYADSVKGRFTISRDNAKNTVYLQMNSLKPEDTAVYYCAAPRGTRVGSHLYYWGQGTQVTVSS", "polyreactivity (PSR sort gate)": "high polyreactivity"}, {"sequence": "QVQLVESGGGIVQAGGSLRLSCAASGFICGHYTMGWYRQAPGKERELVAAITTGGRTYYADSVKGRFTISRDNGKNTVYLQMISLKPEDTAVYYCAARGYIWGQGTPVTVSS", "polyreactivity (PSR sort gate)": "high polyreactivity"}, {"sequence": "QVQLVESGGGLVQAGGSLRLSCAASGSTFYANAMGWYRQAPGKERELVATINRRGNKYYADSVKGRFTISRDHAKNTVYLQMNSLKPEDTAVYYCAADAWVGWHDEYDYWGQGTQVTVSS", "polyreactivity (PSR sort gate)": "low polyreactivity"}]}]}
